Source: US10533231B2, “Artificial bioluminescent enzyme” (NATIONAL INSTITUTE OF ADVANCED INDUSTRIAL SCIENCE AND …, priority 2012, dated 2020)
Residue numbers refer to the chain shown, from its start. “Also recorded” adds a separate entry of the source.

What was measured:
[1] = tested on: COS-7 cells; test: Degree of extracellular secretion of ALucs (Example 1-4); format: cell-based, African green monkey; conditions: luminescence intensity of the medium, overnight culture
Method: Further, each luciferase (ALuc) was introduced into COS-7 cells, culturing was performed overnight, and then the amount of each luciferase (ALuc) secreted from the cells was measured based on the luminescence intensity of the medium (FIG. 4B).

[2] = Prolonged activity stability of ALucs secreted in medium (Example 1-19); format: physicochemical; conditions: Day 0 to Day 25
Method: The prolonged activity stability of the artificial luciferases (ALucs) developed in the present invention was examined. First, a plasmid expressing each artificial luciferase (ALuc16, ALuc22, ALuc23, ALuc24, ALuc25, and ALuc30) (in the figure, each is referred to as A16, A22, A23, A24, A25, and A30) was introduced into COS-7 cells, and then culturing was continued for 24 hours. By the culturing, each artificial luciferase was secreted into the medium. The artificial luciferase secreted in the medium was collected, and a difference in enzymatic activity was measured under the same conditions in the following manner. On the first day (Day 0), 50 μL of assay solution (containing native coelenterazine, produced by Promega) was added to 5 μL of each medium, and the luminescence value (enzymatic activity) was measured using an LAS-4000 (produced by FujiFilm). In the same manner, the luminescence value on Day 8, Day 16, and Day 25 was compared with the luminescence value on Day 0 (FIG. 19 (A)).

[3] = tested on: COS-7 cells; test: Enzymatic activity confirmation of ALuc (section 3-1, 3-2); format: cell-based, African monkey; conditions: vs conventional copepod luciferases
Method: First, using a known lipid reagent for gene introduction, an expression vector encoding ALuc is introduced into African monkey-derived COS-7 cells; as a control, an expression vector having a known GLuc without any mutation into the cells is also introduced in the same manner. At a predetermined time (from 10 to 20 hours, for example, 16 hours) after the introduction of the vector, a cell lysate is prepared using a known lysis reagent.
Thereafter, the cell lysate is mixed with a known substrate solution containing coelenterazine, and its color intensity, temporal stability in luminescence, etc., are measured.
The luminescence intensity may be found by measuring the intensity at a specific wavelength using a known luminescence spectrophotometer after addition of a known substrate. By performing the measurement every minute, the temporal stability in luminescence can be evaluated. To measure a shift to a longer wavelength, scanning of the entire wavelength is necessary.

[4] = tested on: COS-7 cells; test: Comparison of luminescence intensity of ALucs (Example 1-2); format: cell-based, African green monkey; conditions: COS-7 cultured overnight, Promega assay solution, LAS-4000
From the text: The artificial luciferase (ALuc) genes synthesized by the above process were subcloned into mammalian cell expression vectors (pcDNA3.1 (+)). Each expression vector was transfected with African green monkey kidney-derived COS-7 cells, and the luminescence intensity, luminescence stability, and red-shifted degree of artificial luciferases (ALucs) were compared (FIGS. 2 to 5).
First, the luminescence intensity of artificial luciferases (ALucs) was compared (FIG. 2). For the comparison, COS-7 cells containing a vector encoding each luciferase were cultured overnight, and then the relative luminescence intensity was measured by using an assay solution, which is a mixture of a cell lysis solution and a substrate, produced by Promega, and a luminescence image analyzer (LAS-4000).

[5] = tested on: COS-7 cells; test: Luminescence stability of ALucs after substrate injection (Example 1-3); format: cell-based, African green monkey; conditions: Promega lysis and reaction solution
Method: The luminescence stability of the artificial luciferases (ALucs) of the present invention was examined in various respects (FIG. 3). COS-7 cells containing each luciferase gene were cultured for 9 hours, and treated with a cell lysis solution produced by Promega for 20 minutes. Temporal changes in luciferase luminescence intensity after the introduction of a substrate-containing reaction solution produced by Promega were observed every five minutes (FIG. 3A).
This experiment was expanded to artificial luciferases ALuc16 to ALuc25 (FIG. 3BC).

[6] = Heat resistance of ALucs in lysate (Example 1-4); format: physicochemical; conditions: for change of luminescence intensity by heating: 80° C. for 10 minutes
Method: The heat resistance and degree of extracellular secretion of artificial luciferases of the present invention were measured (FIG. 4). First, to measure heat resistance, COS-7 cells containing each luciferase were lysed in cell lysis solutions produced by Promega to prepare lysates. Subsequently, same samples were allowed to stand at room temperature or heated at 80° C. for 10 minutes, and changes in luminescence intensity were compared by using a (substrate-containing) reaction solution produced by Promega.

[7] = tested on: COS-7 cells; test: Luminescence of ALuc25 to ALuc32 in lysate and medium (Example 1-18); format: cell-based; conditions: 20 hours after plasmid introduction
Method: After the insertion of a gene encoding an enzyme sequence as mentioned above into a mammalian expression vector (pcDNA3.1 (+)), each plasmid was introduced into COS-7 cells. By the transformation of these cells, each luciferase was expressed, and some of the luciferase was secreted out of the cells and some of the luciferase retained in the cells. 20 hours after the plasmid introduction, media of the cells were sampled, and the remaining cells were lysed with a lysis buffer (lysate preparation). Immediately after 50 μL of assay solution (containing a substrate) was simultaneously added to each prepared medium (5 μL) or lysate (5 μL), the luminescence value was measured using a luminescence analyzer (LAS-4000; FujiFilm) (n=3) (FIG. 18).

[8] = tested on: COS-7 cells; test: Luminescence characteristics of tag-containing ALucs (Example 1-22); format: cell-based; conditions: medium two days after gene transfer
Method: To compare the relative luminescence intensity of these luciferases, the following experiment was conducted. First, a gene encoding each luciferase was subcloned into pcDNA3.1 (+), which is a eukaryotic expression vector, and each vector was introduced into COS-7 cells. Two days after gene transfer, the relative luminescence intensity of luciferase secreted into each medium was compared using a luminescence reagent produced by Promega.

[9] = Temporal change in luminescence after substrate injection, medium 25 days after expression (Example 1-19); format: biochemical; conditions: for temporal change of luminescence after substrate injection: medium 25 days after expression
Method: 50 μL of an assay solution (containing native coelenterazine, produced by Promega) was added to 5 μL of each medium 25 days after the expression, and the luminescence value (enzymatic activity) was measured using an LAS-4000 (produced by FujiFilm).

B1: ALuc22: artificial luciferase, SEQ ID NO: 15 (protein)
chain: MMGVKLIFAVLCVAVAQANATINENFEDIDLVAIGGSFADLETDLFTIVEDMNVISRDTDVDANRGGRGRRGKLPGKKLPLEVLKELEANAQKAGCTRGCLICLSHIKCTAKMKKWLPGRCESWEGDKETGQGGIGEAIVDIPEIPGFKDLEPMEQFIAQVDLCVDCTTGCLKGLANVKCSDLLKKWLPSRCATFASKIQAQVDKIKGAGGS
modifications: Synthetic ALuc22
In the case of B1, the extracellular secretion [1] is reported as “low extracellular secretion”, the “prolonged enzymatic activity stability” value [2] is reported as “significant decrease in enzymatic activity” and the “luminescence stability (general statement)” value [3] is reported as “remarkably stable luminescence signals”. The “luminescence intensity higher than that of conventional GLuc, Renilla luciferase and MpLuc4” value (shortened to “luminescence intensity higher than that”) [4] was “about 50 folds”, the “luminescence intensity (initial)” value [5] was “advantageous initial luminescence intensity” and the “luminescence stability / sustainability after substrate injection” value [5] was “decreased to about half of the original luminescence intensity after 6 minutes”. For the same molecule, the “change of luminescence intensity by heating” value (“change … by heating” for short) [6] was “significantly decreased” and the “reduction of luminescence intensity by heating” value ([6]; 80° C. for 10 minutes vs room temperature) was “about 40%”.

B2: ALuc25: artificial luciferase, SEQ ID NO: 17 (protein)
chain: B1 chain with D150E, E152A, V165A, D182A, T194G, S197D, K205T
modifications: Synthetic ALuc25
For B2, the extracellular secretion [1] was “low extracellular secretion”, the “prolonged enzymatic activity stability” value [2] was “maintained stable enzymatic activity until Day 25” and the “luminescence stability (general statement)” value [3] was “remarkably stable luminescence signals”. For the same molecule, the “luminescence intensity higher than that” value [4] was “about 50 folds”, the “luminescence intensity (initial)” value [5] was “advantageous initial luminescence intensity” and the “luminescence value from lysate” value [7] was “extremely higher than those of conventional GLuc and MpLuc4”. The “change … by heating” value [6] was “a remarkable reduction in luminescence intensity that may be due to heating was not observed”.

B3: ALuc31: artificial luciferase containing a His tag, SEQ ID NO: 33 (protein)
chain: MMGIKVLFALICFALVQANHHHHHHHHDIVGVEGKFGTTDLETDLFTIVEDMNVISRDTDVDANRADRGRRGELPGKKLPLEVLKELEANAQKAGCTRGCLICLSHIKCTAKMKKWLPGRCESWEGDKETGQGGIGEAIVDIPEIPGFKELAPMEQFIAQVDLCADCTTGCLKGLANVKCSALLKKWLPSRCAGFADKIQAQVDTIKGAGGS
modifications: His tag; Synthetic ALuc31
With B3 the “luminescence stability (general statement)” value [3] was “remarkably stable luminescence signals”, the “luminescence from cell medium” value [7] was “strong bioluminescence” and the “luminescence value from lysate” value [7] was “extremely higher than those of conventional GLuc and MpLuc4”.

B4: ALuc32: artificial luciferase containing a c-Myc-tag, SEQ ID NO: 34 (protein)
chain: B3 chain with H20E, H21Q, H22K, H23L, H24I, H25S, H26E, H27E, I29L, E73K
modifications: c-Myc tag; Synthetic ALuc32
For B4, the relative luminescence intensity [8] was “relatively poor luminescence intensity” and the “luminescence stability (general statement)” value [3] was “remarkably stable luminescence signals”.

B5: ALuc24: artificial luciferase, SEQ ID NO: 27 (protein)
chain: MMGIKVLFALICFALVQANPTENKDDIDIVGVEGKFGTTDLETDLFTIVEDMNVISRDTDVDANRADRGRRGKLPGKKLPLEVLKELEANAQKAGCTRGCLICLSHIKCTAKMKKWLPGRCESWEGDKETGQGGIGEAIVDIPEIPGFKNMAPMEQFIAQVDLCADCTTGCLKGLANVKCSNLLKKWLPSRCKGFANKIQAEVDTIKGLGGS
modifications: Synthetic ALuc24
With B5 the “temporal change of luminescence after substrate injection” value [9] was “abrupt increase in luminescence value after 6 minutes”, the “prolonged enzymatic activity stability” value [2] was “maintained stable enzymatic activity until Day 25” and the “luminescence stability (general statement)” value [3] was “remarkably stable luminescence signals”. For the same molecule, the “luminescence intensity (initial)” value [5] was “slightly low in luminescence intensity; also recorded: relatively low luminescence intensity” and the “luminescence stability / sustainability after substrate injection” value [5] was “excellent in luminescence stability; also recorded: extremely higher luminescence sustainability than other artificial luciferases”.

B6: ALuc23: artificial luciferase, SEQ ID NO: 16 (protein)
chain: B5 chain with N150E, M151L, N182A, K193A, N197D, E202Q, L209A
modifications: Synthetic ALuc23
For B6, the extracellular secretion [1] was “relatively high extracellular secretion”, the “time of maximum luminescence value after infusion of coelenterazine” value ([9]; after long-term conservation (25 days)) was 12 min and the “temporal change of luminescence after substrate injection” value [9] was “several times higher”. For the same molecule, the “luminescence stability (general statement)” value [3] was “remarkably stable luminescence signals”, the “luminescence intensity higher than that” value [4] was “about 50 folds” and the “luminescence intensity (initial)” value [5] was “advantageous initial luminescence intensity”. For the same molecule, the “change … by heating” value [6] was “a remarkable reduction in luminescence intensity that may be due to heating was not observed”.
